Assay results taken from PMC7618261 (Journal of molecular biology, 2019).
Values belong to the molecule of their own block, whether it stands above or below them.

Key:
[1] = molecular target: Alexa Fluor 488-labeled OmpT (E. coli) (UniProt P09169); experiment: MST
SurA WT = molecular target: T1, SurA WT (E. coli, UniProt P0ABZ6 21-428); experiment: MST
T1 sequence (looked up): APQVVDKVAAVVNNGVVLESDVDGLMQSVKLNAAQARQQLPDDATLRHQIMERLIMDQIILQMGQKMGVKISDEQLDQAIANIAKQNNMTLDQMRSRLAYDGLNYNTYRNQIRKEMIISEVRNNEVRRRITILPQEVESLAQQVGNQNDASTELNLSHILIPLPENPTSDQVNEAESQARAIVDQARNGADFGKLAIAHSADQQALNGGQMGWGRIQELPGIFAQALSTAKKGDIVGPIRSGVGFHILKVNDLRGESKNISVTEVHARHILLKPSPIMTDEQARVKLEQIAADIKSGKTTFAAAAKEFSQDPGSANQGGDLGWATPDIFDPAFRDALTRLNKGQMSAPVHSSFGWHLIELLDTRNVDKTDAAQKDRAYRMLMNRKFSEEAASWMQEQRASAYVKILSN

- Kd [1]: 9.3 µM
Molecule: SurA WT (from UniProt P0ABZ6 21-428) (natural protein)

- Kd (SurA WT): 1.8 ± 0.1 µM
B1: Alexa Fluor 488-labeled tOmpA (domain or fragment)
chain: APKDNTWYTGAKLGWSQYHDTGFINNNGPTHENQLGAGAFGGYQVNPYVGFEMGYDWLGRMPYKGSVENGAYKAQGVQLTAKLGYPITDDLDIYTRLGGMVWRADTKSNVYGKNHDTGVSPVFAGGVEYAITPEIATRLEYQWTNNIGDAHTIGTRPDNGMLSLGVSYRFG
modifications: Alexa Fluor 488 C5 maleimide on the N-terminal Cys
